These results are taken from paper PMC10672810, “Research of Multicopper Oxidase and Its Degradation of Histamine in Lactiplantibacillus plantarum LPZN19” (Microorganisms, 2023).

Substrate in series [1]: CCn1c(=NN=c2sc3cc(S(=O)(=O)O)ccc3n2CC)sc2cc(S(=O)(=O)O)ccc21
Nature of the series: ABTS oxidation, visible absorption, Lineweaver-Burk. In kind it is biochemical, Lactiplantibacillus plantarum. The following applies: MES buffer, pH 3.5, 50 °C, 2 h. From the text: ABTS oxidation, visible absorption, Lineweaver-Burk on MCO (multicopper oxidase)

Substrate in series [2]: NCCc1c[nH]cn1
The series is described as follows: histamine degradation monitored by LC-MS. Type of series: biochemical, Lactiplantibacillus plantarum. As to conditions: 50 °C, pH not stated for this assay.

B1: MCO (multicopper oxidase) (Lactiplantibacillus plantarum WCFS1) (protein)
chain: MAKKVYTDYFFDEPAYNTHDGGYIPLVTPKVEPQPLAIPPLLKPDRQTDTDDYYTVTAQESETQFLPGKKTKTWGYNAGFLGQTIVFRNGKQTHIDLENKLPELTTFHWHGLNVPGPITDGGCHAPVYPGETNHIDFKVHQPAATTWLHAHPCPSTATQVWKGLATMVIIKDDVEDQLPLPRNYGVDDIPLVLQDREFHDDNQFDYRADYDPDGVQGHTALVNGTVNPYFDVTTQRVRLRILDGSNRREWRLHFNDDLEFAQVASDGGILPAPVYMTKVMMTCAERDEIVVDFGQYQPGDEVTLMTDDTPLCRFRIKSFVPDDTKLPEHLVDIPDETPTPDLPVRTITMDGMDDEVALDGKKFDMSRIDARQKVGDVAIWEIRNTNSTENGMVHPFHVHGTQFRVLARNDGPVYPNEHGLKDTVGVNPGETVRIKVKFELTGVYMYHCHIIEHEDGGMMAQIESYDPQHPQTYHLMDMDTLRNAFAKEQGIKPEDVWMPGM
notes: full length, 501 residues, no signal peptide; pET-28a EcoRI/HindIII, N-terminal His-tag (about 67 kDa on SDS-PAGE), E. coli BL21 (DE3), Ni-NTA; primers imply N-terminus MAKKVYTD and C-terminus WMPGM; peptides EFHDDNQFDYR, GLATMVIIKDDVEDOLPLPR
The term Km denotes the substrate concentration at which the rate is half of its maximum. In general, kcat refers to the maximal rate divided by the concentration of active sites. Usually kcat/Km stands for the turnover number divided by the Michaelis constant. Turning to B1, in series [1], the Km was 2180 ± 130 µM, the kcat turned out to be 3.77 ± 0.09 s⁻¹ and the kcat/Km came to 1730 ± 160 M⁻¹ s⁻¹. Further, the Km in series [2] was found to be 2070 ± 180 µM.
